{"source": "IntAct's records for PubMed 9468139", "parents": {"B1": {"name": "Retinoblastoma-associated protein (Homo sapiens), P06400 (parent)", "chain": "MPPKTPRKTAATAAAAAAEPPAPPPPPPPEEDPEQDSGPEDLPLVRLEFEETEEPDFTALCQKLKIPDHVRERAWLTWEKVSSVDGVLGGYIQKKKELWGICIFIAAVDLDEMSFTFTELQKNIEISVHKFFNLLKEIDTSTKVDNAMSRLLKKYDVLFALFSKLERTCELIYLTQPSSSISTEINSALVLKVSWITFLLAKGEVLQMEDDLVISFQLMLCVLDYFIKLSPPMLLKEPYKTAVIPINGSPRTPRRGQNRSARIAKQLENDTRIIEVLCKEHECNIDEVKNVYFKNFIPFMNSLGLVTSNGLPEVENLSKRYEEIYLKNKDLDARLFLDHDKTLQTDSIDSFETQRTPRKSNLDEEVNVIPPHTPVRTVMNTIQQLMMILNSASDQPSENLISYFNNCTVNPKESILKRVKDIGYIFKEKFAKAVGQGCVEIGSQRYKLGVRLYYRVMESMLKSEEERLSIQNFSKLLNDNIFHMSLLACALEVVMATYSRSTSQNLDSGTDLSFPWILNVLNLKAFDFYKVIESFIKAEGNLTREMIKHLERCEHRIMESLAWLSDSPLFDLIKQSKDREGPTDHLESACPLNLPLQNNHTAADMYLSPVRSPKKKGSTTRVNSTANAETQATSAFQTQKPLKSTSLSLFYKKVYRLAYLRLNTLCERLLSEHPELEHIIWTLFQHTLQNEYELMRDRHLDQIMMCSMYGICKVKNIDLKFKIIVTAYKDLPHAVQETFKRVLIKEEEYDSIIVFYNSVFMQRLKTNILQYASTRPPTLSPIPHIPRSPYKFPSSPLRIPGGNIYISPLKSPYKISEGLPTPTKMTPRSRILVSIGESFGTSEKFQKINQMVCNSDRVLKRSAEGSNPPKPLKKLRFDIEGSDEADGSKHLPGESKFQQKLAEMTSTRTRMQKQKMNDSMDTSNKEEK"}}, "data": [{"variants_of": "B1", "settings": "with hdac1_human HDAC1, Q13547", "values": [{"variant": "C706F", "effect of a mutation on the interaction": "decreasing interaction"}]}]}
